Measurements from US20040087777A1.

Key:
Test in all cases: rNET
[1] = target: … analog, Residue 6 = W
[2] = target: … analog, Residue 4 = N
[3] = target: … analog, Residue 5 = N
[4] = target: … analog, Residue 6 = F
[5] = target: … analog, Residue 7 = I
[6] = target: … analog, Residue 4 = P
[7] = target: … analog, Residue 6 = M
[8] = target: … analog, Residue 7 = S
[9] = target: … analog, Residue 4 = A
[10] = target: … analog, Residue 6 = P
[11] = target: … analog, Residue 6 = N
[12] = target: … analog, Residue 7 = Q
[13] = target: … analog, Residue 4 = C
[14] = target: … analog, Residue 5 = S
[15] = target: … analog, Residue 6 = C
[16] = target: … analog, Residue 5 = V
[17] = target: … analog, Residue 7 = A
[18] = target: … analog, Residue 7 = P
[19] = target: … analog, Residue 5 = E
[20] = target: … analog, Residue 6 = L
[21] = target: … analog, Residue 5 = P
[22] = target: … analog, Residue 5 = C
[23] = target: … analog, Residue 5 = M
[24] = target: … analog, Residue 5 = Q
[25] = target: … analog, Residue 4 = T
[26] = target: … analog, Residue 7 = V
[27] = target: … analog, Residue 5 = D
[28] = target: … analog, Residue 6 = A
[29] = target: … analog, Residue 5 = F
[30] = target: … analog, Residue 4 = S
[31] = target: … analog, Residue 6 = R
[32] = target: … analog, Residue 4 = V
[33] = target: … analog, Residue 4 = G
[34] = target: … analog, Residue 6 = Q
[35] = target: … analog, Residue 7 = C
[36] = target: … analog, Residue 5 = L
[37] = target: … analog, Residue 4 = L
[38] = target: … analog, Residue 5 = I
[39] = target: … analog, Residue 4 = K
[40] = target: … analog, Residue 7 = G
[41] = target: … analog, Residue 7 = W
[42] = target: … analog, Residue 4 = D
[43] = target: … analog, Residue 7 = K
[44] = target: … analog, Residue 4 = R
[45] = target: … analog, Residue 7 = T
[46] = target: … analog, Residue 7 = Y
[47] = target: … analog, Residue 5 = Y
[48] = target: … analog, Residue 5 = T
[49] = target: … analog, Residue 4 = Q
[50] = target: … analog, Residue 6 = G
[51] = target: … analog, Residue 4 = Y
[52] = target: … analog, Residue 4 = E
[53] = target: … analog, Residue 5 = W
[54] = target: … analog, Residue 4 = M
[55] = target: … analog, Residue 6 = E
[56] = target: … analog, Residue 4 = W
[57] = target: … analog, Residue 6 = I
[58] = target: … analog, Residue 6 = K
[59] = target: … analog, Residue 6 = D
[60] = target: … analog, Residue 6 = V
[61] = target: … analog, Residue 7 = F
[62] = target: … analog, Residue 6 = Y
[63] = target: … analog, Residue 4 = I
[64] = target: … analog, Residue 7 = R
[65] = target: … analog, Residue 7 = M
[66] = target: … analog, Residue 7 = L
[67] = target: … analog, Residue 5 = A

B1: murine monoclonal antibody 3D6 (antibody, mouse IgG2b, V domains shown)
VL: not shown
VH: EVKLVESGGGLVKPGASLKLSCAASGFTFSNYGMSWVRQNSDKRLEWVASIRSGGGRTYYSDNVKGRFTISRENAKNTLYLQMSSLKSEDTALYYCVRYDHYSGSSDYWGQGTTVTVSS
Question: What does the source list for B1?
Answer: OD [1]: 0.576 OD; OD [2]: 0.085 OD; OD [3]: 0.476 OD; OD [4]: 0.586 OD; OD [5]: 0.552 OD; OD [6]: 0.03 OD; OD [7]: 0.583 OD; OD [8]: 0.563 OD; OD [9]: 0.016 OD; OD [10]: 0.587 OD; OD [11]: 0.58 OD; OD [12]: 0.563 OD; OD [13]: 0.02 OD; OD [14]: 0.487 OD; OD [15]: 0.585 OD; OD [16]: 0.493 OD; OD [17]: 0.58 OD; OD [18]: 0.582 OD; OD [19]: 0.115 OD; OD [20]: 0.584 OD; OD [21]: 0.093 OD; OD [22]: 0.359 OD; OD [23]: 0.418 OD; OD [24]: 0.388 OD; OD [25]: 0.016 OD; OD [26]: 0.563 OD; OD [27]: 0.08 OD; OD [28]: 0.587 OD; OD [29]: 0.439 OD; OD [30]: 0.026 OD; OD [31]: 0.576 OD; OD [32]: 0.213 OD; OD [33]: 0.016 OD; OD [34]: 0.57 OD; OD [35]: 0.559 OD; OD [36]: 0.517 OD; OD [37]: 0.559 OD; OD [38]: 0.51 OD; OD [39]: 0.015 OD; OD [40]: 0.562 OD; OD [41]: 0.547 OD; OD [42]: 0.017 OD; OD [43]: 0.565 OD; OD [44]: 0.016 OD; OD [45]: 0.56 OD; OD [46]: 0.56 OD; OD [47]: 0.278 OD; OD [48]: 0.53 OD; OD [49]: 0.065 OD; OD [50]: 0.592 OD; OD [51]: 0.529 OD; OD [52]: 0.016 OD; OD [53]: 0.393 OD; OD [54]: 0.549 OD; OD [55]: 0.579 OD; OD [56]: 0.291 OD; OD [57]: 0.602 OD; OD [58]: 0.585 OD; OD [59]: 0.584 OD; OD [60]: 0.588 OD; OD [61]: 0.546 OD; OD [62]: 0.595 OD; OD [63]: 0.119 OD; OD [64]: 0.551 OD; OD [65]: 0.562 OD; OD [66]: 0.566 OD; OD [67]: 0.275 OD
